This is an account of results in the Human Domainome abundance scans (Beltran et al. 2025).

First the molecules themselves.
B1: Storkhead-box protein 2, residues 64 to 141; numbered along this chain, Q9P2F5 (parent)
chain: SPISQSQFIPLGEILCLAISAMNSARKPVTQEALMEHLTTCFPGVPTPSQEILRHTLNTLVRERKIYPTPDGYFIVTP

± gives the uncertainty stated by the source.

This data set covers variants of B1. The experiment in a line: abundance fitness (aPCA) (normalised: wild type 0, dead -1); higher = more abundant; growth selection in yeast, the domain comes from the species named. The settings on record: Homo sapiens.
In the case of SPISQSQFIPLGEILCLAISAWNSARKPVTQEALMEHLTTCFPGVPTPSQEILRHTLNTLVRERKIYPTPDGYFIVTP [M22W], the abundance fitness is -0.336 ± 0.05.
For the variant SPIMQSQFIPLGEILCLAISAMNSARKPVTQEALMEHLTTCFPGVPTPSQEILRHTLNTLVRERKIYPTPDGYFIVTP [S4M], the abundance fitness worked out at 0.002 ± 0.066.
Turning to SPIRQSQFIPLGEILCLAISAMNSARKPVTQEALMEHLTTCFPGVPTPSQEILRHTLNTLVRERKIYPTPDGYFIVTP [S4R], the abundance fitness was -0.155 ± 0.043.
Regarding SPICQSQFIPLGEILCLAISAMNSARKPVTQEALMEHLTTCFPGVPTPSQEILRHTLNTLVRERKIYPTPDGYFIVTP [S4C], the abundance fitness was -0.013 ± 0.068.
To SPISQSQFIPLGEILCLAISAMNSARVPVTQEALMEHLTTCFPGVPTPSQEILRHTLNTLVRERKIYPTPDGYFIVTP [K27V] belongs -0.079 ± 0.035; to SPISQSQFIPLGEILCLAISAMNSARWPVTQEALMEHLTTCFPGVPTPSQEILRHTLNTLVRERKIYPTPDGYFIVTP [K27W], -0.184 ± 0.04.
As for SPISQSQFIPLGEILCLAISAMNSERKPVTQEALMEHLTTCFPGVPTPSQEILRHTLNTLVRERKIYPTPDGYFIVTP [A25E], the abundance fitness was -0.049 ± 0.1.
Consider SPISQSQFIPLGEILCLAISAMNSWRKPVTQEALMEHLTTCFPGVPTPSQEILRHTLNTLVRERKIYPTPDGYFIVTP [A25W], for which the abundance fitness was -0.189 ± 0.053.
In the case of SPISQSGFIPLGEILCLAISAMNSARKPVTQEALMEHLTTCFPGVPTPSQEILRHTLNTLVRERKIYPTPDGYFIVTP [Q7G] it was 0.063 ± 0.033.
For SPISQSQFIPLGEILCLAISAMNSARKPVTQEALMEHLTTCFPGVPTPSQEILRHTLNTLVTERKIYPTPDGYFIVTP [R62T], the abundance fitness is 0.053 ± 0.051.
For the variant SGISQSQFIPLGEILCLAISAMNSARKPVTQEALMEHLTTCFPGVPTPSQEILRHTLNTLVRERKIYPTPDGYFIVTP [P2G], the abundance fitness is -0.095 ± 0.042.
In the case of SPISQSQFLPLGEILCLAISAMNSARKPVTQEALMEHLTTCFPGVPTPSQEILRHTLNTLVRERKIYPTPDGYFIVTP [I9L], the abundance fitness was determined as 0.03 ± 0.041.
With SPISQSQFIPLGEILCLAISAMNSARKPVTQFALMEHLTTCFPGVPTPSQEILRHTLNTLVRERKIYPTPDGYFIVTP [E32F], the abundance fitness was -0.159 ± 0.11.
In the case of SPISQSQFIPLGEILCLAISAMNSARKPVTQEALMEHLTTCFPGVGTPSQEILRHTLNTLVRERKIYPTPDGYFIVTP [P46G] it was -0.133 ± 0.032.
Regarding SPISQSQFIPLGEILCLAISAMNSARKPVTQEALMEHLTTCFPGVHTPSQEILRHTLNTLVRERKIYPTPDGYFIVTP [P46H], the abundance fitness was -0.14 ± 0.072.
As to SPISQSQFIPLGEILCLAISAMNSARKPVTQEALMEHLTTCFPGVATPSQEILRHTLNTLVRERKIYPTPDGYFIVTP [P46A], the abundance fitness is -0.079 ± 0.046.
SPISQSQFIPLGEILCLAPSAMNSARKPVTQEALMEHLTTCFPGVPTPSQEILRHTLNTLVRERKIYPTPDGYFIVTP [I19P]: the abundance fitness is -0.948 ± 0.12.
To SPISQSQFIPLGEILCLAISAMNSARKPVTQEQLMEHLTTCFPGVPTPSQEILRHTLNTLVRERKIYPTPDGYFIVTP [A33Q] belongs 0.009 ± 0.061.
For SPISQSQFIPLGEILCLAISAMNSARKPVTQEGLMEHLTTCFPGVPTPSQEILRHTLNTLVRERKIYPTPDGYFIVTP [A33G], the abundance fitness was -0.038 ± 0.035.
On to SPISQSQFIPLGEILCLAISAMNSARKPVTQEALQEHLTTCFPGVPTPSQEILRHTLNTLVRERKIYPTPDGYFIVTP [M35Q], for which the abundance fitness is -0.063 ± 0.092.
In the case of SPISQMQFIPLGEILCLAISAMNSARKPVTQEALMEHLTTCFPGVPTPSQEILRHTLNTLVRERKIYPTPDGYFIVTP [S6M] it was -0.123 ± 0.079; in that of SPISQKQFIPLGEILCLAISAMNSARKPVTQEALMEHLTTCFPGVPTPSQEILRHTLNTLVRERKIYPTPDGYFIVTP [S6K], -0.126 ± 0.075; in that of SPQSQSQFIPLGEILCLAISAMNSARKPVTQEALMEHLTTCFPGVPTPSQEILRHTLNTLVRERKIYPTPDGYFIVTP [I3Q], -0.12 ± 0.048.
Turning to SPISQSQFIPLGEILCLAISAMNSARKPVTQEALMLHLTTCFPGVPTPSQEILRHTLNTLVRERKIYPTPDGYFIVTP [E36L], the abundance fitness was -0.058 ± 0.048.
Turning to SPISQSQFIPLGETLCLAISAMNSARKPVTQEALMEHLTTCFPGVPTPSQEILRHTLNTLVRERKIYPTPDGYFIVTP [I14T], the abundance fitness is -0.034 ± 0.063.
On to SPISQSQFIPLGEHLCLAISAMNSARKPVTQEALMEHLTTCFPGVPTPSQEILRHTLNTLVRERKIYPTPDGYFIVTP [I14H], for which the abundance fitness was 0.033 ± 0.28.
Take SPISQSQFIPLGEILCLAISAMNSARKPVTQEALMEHLTTCFPGVPTPSQEILRHTLNTLVRERKIRPTPDGYFIVTP [Y67R]: the abundance fitness stood at 0.022 ± 0.035.
With SPISQSQFIPLGEILCLAISAMNSARKPVTQEALMEHLTTCFPGVPTPSQEILRHTLNTLVRERKIFPTPDGYFIVTP [Y67F], the abundance fitness is -0.021 ± 0.065.
As to SPISQSQFIPLGEILCLAISAMNLARKPVTQEALMEHLTTCFPGVPTPSQEILRHTLNTLVRERKIYPTPDGYFIVTP [S24L], the abundance fitness was -0.078 ± 0.038.
In the case of SPISQSQFIPLGEILCLAISAMNPARKPVTQEALMEHLTTCFPGVPTPSQEILRHTLNTLVRERKIYPTPDGYFIVTP [S24P], the abundance fitness is -0.34 ± 0.038.
In the case of SPISQSQFIPLGEILCLAISAMNSARKPVTQEALMEHLTTCFPGVPTPSQEILRHTLNTLVRVRKIYPTPDGYFIVTP [E63V], the abundance fitness is -0.049 ± 0.047.
In the case of SPISQSQFIPLGEILCLAISAMNSARKPVTQEALMEHLTTCFPGVPTPSQEILRHTLNTLVRWRKIYPTPDGYFIVTP [E63W] it was -0.075 ± 0.049; in that of SPISQSQFIPLGEIICLAISAMNSARKPVTQEALMEHLTTCFPGVPTPSQEILRHTLNTLVRERKIYPTPDGYFIVTP [L15I], -0.061 ± 0.097.
To SPISQSQFIPLGEIVCLAISAMNSARKPVTQEALMEHLTTCFPGVPTPSQEILRHTLNTLVRERKIYPTPDGYFIVTP [L15V] belongs 0.039 ± 0.061; to SPISQSQFIPLGEILCLAISAMNSARKPVKQEALMEHLTTCFPGVPTPSQEILRHTLNTLVRERKIYPTPDGYFIVTP [T30K], -0.089 ± 0.094.
